Positions count from the first letter of the chain named.
Legend:
[1] = molecular target: site-specific biotinylated monomeric human CD32a^H (FcγRIIa, histidine-131 variant), recombinant (human) (UniProt P12318); assay: SPR (Biacore 3000), steady state, monomeric IgG, pH 7.4
[2] = molecular target: site-specific biotinylated monomeric human CD32a^H (FcγRIIa, histidine-131 variant), recombinant (human) (UniProt P12318); assay: SPR steady state (refers to Table 6)
[3] = molecular target: His-tagged soluble mouse FcRn (mFcRn), recombinant (mouse) (UniProt Q61559); assay: method not stated; neutral pH
[4] = molecular target: site-specific biotinylated monomeric human CD32a^R (FcγRIIa, arginine-131 variant), recombinant (human) (UniProt P12318); assay: SPR (Biacore 3000), steady state, monomeric IgG, pH 7.4
[5] = molecular target: T1, His-tagged soluble human FcRn (hFcRn), recombinant (human, UniProt P55899 24-290; P61769 21-119, limits assumed); assay: bridging ELISA at pH 5.5: hFcRn/ALP-nanobody reporter complex at one concentration on captured CD32a^H without IgG
T1 construct: Made in an insect cell system 'as described previously'; also called recombinant hFcRn; hFcRn reporter complex (with ALP-conjugated hFcRn-specific nanobody)
T1 sequence (P55899 24-290 limits assumed, chain 1 of 2): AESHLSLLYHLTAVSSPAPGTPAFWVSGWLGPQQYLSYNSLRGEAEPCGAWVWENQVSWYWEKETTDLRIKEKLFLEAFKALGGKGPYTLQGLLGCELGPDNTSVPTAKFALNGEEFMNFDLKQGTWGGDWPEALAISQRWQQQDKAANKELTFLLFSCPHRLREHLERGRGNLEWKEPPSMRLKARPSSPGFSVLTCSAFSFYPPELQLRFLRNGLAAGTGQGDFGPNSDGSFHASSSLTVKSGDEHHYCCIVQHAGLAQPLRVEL
T1 sequence (P61769 21-119 limits assumed, chain 2 of 2): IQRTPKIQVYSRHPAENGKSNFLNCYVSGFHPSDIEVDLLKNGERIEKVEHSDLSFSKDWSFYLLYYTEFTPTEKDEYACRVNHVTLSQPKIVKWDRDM

[6] = molecular target: T2, His-tagged soluble mouse FcRn (mFcRn), recombinant (mouse, UniProt Q61559 22-290; P01887 21-119, limits assumed); assay: SPR at pH 5.5: mFcRn injected alone over CD32a^H captured on neutravidin (variant as titled on the sheet); the concentration is not printed on the sheet
T2 construct: Made in an insect cell system 'as described previously'; also called recombinant mFcRn
T2 sequence (looked up): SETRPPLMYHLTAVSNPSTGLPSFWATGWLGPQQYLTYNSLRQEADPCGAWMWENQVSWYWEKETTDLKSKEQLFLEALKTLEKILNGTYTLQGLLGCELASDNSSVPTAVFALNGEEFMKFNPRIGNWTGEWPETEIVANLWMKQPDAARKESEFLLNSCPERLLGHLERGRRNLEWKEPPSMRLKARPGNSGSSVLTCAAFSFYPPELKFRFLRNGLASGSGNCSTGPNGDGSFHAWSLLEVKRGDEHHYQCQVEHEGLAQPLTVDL
T2 sequence (b2m, looked up): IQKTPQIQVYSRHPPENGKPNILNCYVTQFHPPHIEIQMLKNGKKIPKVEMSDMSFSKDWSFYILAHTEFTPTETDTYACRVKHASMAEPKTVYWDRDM
Description: (§1) Recombinant C-terminus-biotinylated CD32a variants were captured on neutravidin-coated plates. Analyte(s) were then injected as indicated and specified in the material and methods. […] Recombinant C-terminus-biotinylated CD32a variants were captured on neutravidin amine-coupled CM5 sensor chips. Analyte(s) were then injected as indicated and specified in the material and methods.
(§2) The cDNAs encoding for CD32a^R and CD32a^H were subcloned into a pcDNA3.1 vector and sequences verified by DNA sequencing. […] To obtain clones with similar expression of CD32a^R or CD32a^H, transfected MDCK-II, HEK293T^H2-Kb, and RAW264.7 were processed by fluorescence-activated cell sorting (FACS; BD FACSAria II™). SPR and ELISA CD32a-IgG-FcRn binding SPR analysis was performed using a Biacore 3000™ instrument (GE Healthcare™). CM5™ sensor chips (GE Healthcare™) were coupled with neutrAvidin (Pierce™) (~1000 RU) using amine coupling chemistry, by injecting 5 g/ml in 10 mM sodium acetate, pH 4.5 (GE Healthcare™) at 25° C.).

[7] = molecular target: T2, His-tagged soluble mouse FcRn (mFcRn), …; assay: SPR at pH 5.5: mFcRn injected alone over CD32a^R captured on neutravidin (variant as titled on the sheet); the concentration is not printed on the sheet
Description: as §1, §2

[8] = molecular target: T1, His-tagged soluble human FcRn (hFcRn), …; assay: bridging ELISA at pH 5.5: hFcRn/ALP-nanobody reporter complex at one concentration on captured CD32a^R without IgG

anti-NIP hIgG1-I253A/H310A/H435A (hIgG1^IHH) (from UniProt P01857 1-330) (antibody)
Kd [1]: 4800 nM

anti-NIP hIgG1-M252Y/S254T/T256E/H433K/N434F (hIgG1^MST/HN) (from UniProt P01857 1-330) (antibody)
decrease of binding against hIgG1^WT [2]: 50% | Kd [1]: 2800 nM | Kd [3]: 7.4 nM

anti-NIP chimeric IgG with wild type human IgG1 Fc (hIgG1^WT) (antibody)
Kd [4]: 2000 nM | Kd [1]: 1300 nM

B1: site-specific biotinylated monomeric human CD32a^H (FcγRIIa, histidine-131 variant), recombinant (receptor, UniProt P12318 34-218, looked up)
chain: QAAAPPKAVLKLEPPWINVLQEDSVTLTCQGARSPESDSIQWFHNGNLIPTHTQPSYRFKANNNDSGEYTCQTGQTSLSDPVHLTVLSEWLVLQTPHLEFQEGETIMLRCHSWKDKPLVKVTFFQNGKSQKFSHLDPTFSIPQANHSHSGDYHCTGNIGYTLFSSKPVTITVQVPSMGSSSPMGI
modifications: C-terminus biotinylated
notes: Bought recombinant protein; also called CD32a-H131; C-terminus biotinylated CD32a^H
binding result [5]: no binding | binding result [6]: no binding

B2: site-specific biotinylated monomeric human CD32a^R (FcγRIIa, arginine-131 variant), recombinant (receptor, UniProt P12318 34-218, looked up)
chain: B1 chain with H134R
modifications: C-terminus biotinylated
notes: Bought recombinant protein; The substitution is written against the histidine-131 form; also called CD32a-R131; C-terminus biotinylated CD32a^R
binding result [7]: no binding | binding result [8]: no binding

Reference: patent US20260274961A1 (BRIGHAM AND WOMEN S HOSPITAL, published 2026)
